Read-outs that look alike come from different tables or passages of the source. Each block holds one molecule with its values, some of them ahead of it.
Experiments:
[1] = biological target: human CCR7 wild type (human) (UniProt P32248)
[2] = biological target: CCR7 R209A (human) (UniProt P32248)
[3] = biological target: human CCR7 wild type (human) (UniProt P32248); remark: listed apart in the source
[4] = biological target: CCR7 L61A (human) (UniProt P32248)
[5] = biological target: CCR7 R54A (human) (UniProt P32248)
[6] = biological target: CCR7 R209A (human) (UniProt P32248); remark: listed apart in the source
[7] = biological target: CCR7 W114A (human) (UniProt P32248)
[8] = biological target: CCR7 N305A (human) (UniProt P32248)
[9] = biological target: CCR7 S117A (human) (UniProt P32248)
[10] = biological target: CCR7 Y65A (human) (UniProt P32248)
[11] = biological target: CCR7 L61A (human) (UniProt P32248); remark: listed apart in the source
[12] = biological target: CCR7 R54A (human) (UniProt P32248); remark: listed apart in the source
[13] = biological target: CCR7 E205A (human) (UniProt P32248)
[14] = biological target: CCR7 R209A (human) (UniProt P32248); remark: listed apart in the source
[15] = biological target: CCR7 F133A (human) (UniProt P32248)
[16] = biological target: CCR7 K57A (human) (UniProt P32248)
[17] = biological target: CCR7 W114A (human) (UniProt P32248); remark: listed apart in the source
[18] = biological target: CCR7 K137A (human) (UniProt P32248)
[19] = biological target: CCR7 F107A (human) (UniProt P32248)
[20] = biological target: CCR7 K50A (human) (UniProt P32248)
[21] = biological target: CCR7 A118S (human) (UniProt P32248)
[22] = biological target: CCR7 Y308A (human) (UniProt P32248)
[23] = biological target: CCR7 E193A (human) (UniProt P32248)
[24] = biological target: human CCR7 wild type (human) (UniProt P32248); remark: listed apart in the source

G protein signaling (BRET cAMP Camyel sensor, CHO-k1 cells transfected with CCR7): signal at 100 nM chemokine, normalized to CCL19 [1]: 92% | Transwell migration of stably transfected 300–19 pre-B cells: activity at 10 nM CCL19 relative to WT CCR7 [2]: 42 % of WT | Transwell migration of stably transfected 300–19 pre-B cells: % specific migration at 10 nM CCL19 [3]: 11.6% | Transwell migration of stably transfected 300–19 pre-B cells: % specific migration at 10 nM CCL19 [4]: 7.5% | Transwell migration of stably transfected 300–19 pre-B cells: % specific migration at 10 nM CCL19 [5]: -0.1% | Transwell migration of stably transfected 300–19 pre-B cells: % specific migration at 10 nM CCL19 [6]: 5% | Transwell migration of stably transfected 300–19 pre-B cells: % specific migration at 10 nM CCL19 [7]: 1% | G protein signaling (BRET cAMP Camyel sensor, transfected CHO-k1 cells): -logEC50 (M) of CCL19 [8]: 8.6 -logEC50 (M) | G protein signaling (BRET cAMP Camyel sensor, transfected CHO-k1 cells): FMut, fold change of CCL19 potency compared to WT CCR7 [8]: 4 fold | G protein signaling (BRET cAMP Camyel sensor, transfected CHO-k1 cells): -logEC50 (M) of CCL19 [9]: 9.5 -logEC50 (M) | G protein signaling (BRET cAMP Camyel sensor, transfected CHO-k1 cells): FMut, fold change of CCL19 potency compared to WT CCR7 [9]: 1 fold | G protein signaling (BRET cAMP Camyel sensor, transfected CHO-k1 cells): -logEC50 (M) of CCL19 [10]: 9 -logEC50 (M) | G protein signaling (BRET cAMP Camyel sensor, transfected CHO-k1 cells): FMut, fold change of CCL19 potency compared to WT CCR7 [10]: 2 fold | G protein signaling (BRET cAMP Camyel sensor, transfected CHO-k1 cells): -logEC50 (M) of CCL19 [11]: 8.9 -logEC50 (M) | G protein signaling (BRET cAMP Camyel sensor, transfected CHO-k1 cells): FMut, fold change of CCL19 potency compared to WT CCR7 [11]: 3 fold | G protein signaling (BRET cAMP Camyel sensor, transfected CHO-k1 cells): -logEC50 (M) of CCL19 [12]: 7.1 -logEC50 (M) | G protein signaling (BRET cAMP Camyel sensor, transfected CHO-k1 cells): FMut, fold change of CCL19 potency compared to WT CCR7 [12]: 100 fold | G protein signaling (BRET cAMP Camyel sensor, transfected CHO-k1 cells): -logEC50 (M) of CCL19 [13]: 9.2 -logEC50 (M) | G protein signaling (BRET cAMP Camyel sensor, transfected CHO-k1 cells): FMut, fold change of CCL19 potency compared to WT CCR7 [13]: 3 fold | G protein signaling (BRET cAMP Camyel sensor, transfected CHO-k1 cells): -logEC50 (M) of CCL19 [14]: 8.5 -logEC50 (M) | G protein signaling (BRET cAMP Camyel sensor, transfected CHO-k1 cells): FMut, fold change of CCL19 potency compared to WT CCR7 [14]: 8 fold | G protein signaling (BRET cAMP Camyel sensor, transfected CHO-k1 cells): -logEC50 (M) of CCL19 [15]: 8.7 -logEC50 (M) | G protein signaling (BRET cAMP Camyel sensor, transfected CHO-k1 cells): FMut, fold change of CCL19 potency compared to WT CCR7 [15]: 1 fold | G protein signaling (BRET cAMP Camyel sensor, transfected CHO-k1 cells): -logEC50 (M) of CCL19 [16]: 9.2 -logEC50 (M) | G protein signaling (BRET cAMP Camyel sensor, transfected CHO-k1 cells): FMut, fold change of CCL19 potency compared to WT CCR7 [16]: 2 fold | G protein signaling (BRET cAMP Camyel sensor, transfected CHO-k1 cells): -logEC50 (M) of CCL19 [17]: 8 -logEC50 (M) | G protein signaling (BRET cAMP Camyel sensor, transfected CHO-k1 cells): FMut, fold change of CCL19 potency compared to WT CCR7 [17]: 13 fold | G protein signaling (BRET cAMP Camyel sensor, transfected CHO-k1 cells): -logEC50 (M) of CCL19 [18]: 9.2 -logEC50 (M) | G protein signaling (BRET cAMP Camyel sensor, transfected CHO-k1 cells): FMut, fold change of CCL19 potency compared to WT CCR7 [18]: 3 fold | G protein signaling (BRET cAMP Camyel sensor, transfected CHO-k1 cells): -logEC50 (M) of CCL19 [19]: 8.9 -logEC50 (M) | G protein signaling (BRET cAMP Camyel sensor, transfected CHO-k1 cells): FMut, fold change of CCL19 potency compared to WT CCR7 [19]: 2 fold | G protein signaling (BRET cAMP Camyel sensor, transfected CHO-k1 cells): -logEC50 (M) of CCL19 [20]: 8.5 -logEC50 (M) | G protein signaling (BRET cAMP Camyel sensor, transfected CHO-k1 cells): FMut, fold change of CCL19 potency compared to WT CCR7 [20]: 13 fold | G protein signaling (BRET cAMP Camyel sensor, transfected CHO-k1 cells): -logEC50 (M) of CCL19 [21]: 9.7 -logEC50 (M) | G protein signaling (BRET cAMP Camyel sensor, transfected CHO-k1 cells): FMut, fold change of CCL19 potency compared to WT CCR7 [21]: 2 fold | G protein signaling (BRET cAMP Camyel sensor, transfected CHO-k1 cells): -logEC50 (M) of CCL19 [22]: 9.1 -logEC50 (M) | G protein signaling (BRET cAMP Camyel sensor, transfected CHO-k1 cells): FMut, fold change of CCL19 potency compared to WT CCR7 [22]: 2 fold | G protein signaling (BRET cAMP Camyel sensor, transfected CHO-k1 cells): -logEC50 (M) of CCL19 [23]: 9.6 -logEC50 (M) | G protein signaling (BRET cAMP Camyel sensor, transfected CHO-k1 cells): FMut, fold change of CCL19 potency compared to WT CCR7 [23]: 3 fold | G protein signaling (BRET cAMP Camyel sensor, CHO-k1 cells transfected with CCR7): logEC50 [24]: -9.4 logEC50 (M) | β-arrestin-2 recruitment (bystander BRET, CHO-k1 cells transfected with CCR7): logEC50 [24]: -7.9 logEC50 (M)
Molecule: human chemokine CCL19 (from UniProt Q99731 22-98) (ligand)

Transwell migration of stably transfected 300–19 pre-B cells: activity at 10 nM CCL21 relative to WT CCR7 [2]: 2.5 fold | Transwell migration of stably transfected 300–19 pre-B cells: % specific migration at 10 nM CCL21 [3]: 5.1% | Transwell migration of stably transfected 300–19 pre-B cells: % specific migration at 10 nM CCL21 [4]: 4% | Transwell migration of stably transfected 300–19 pre-B cells: % specific migration at 10 nM CCL21 [5]: 0.3% | Transwell migration of stably transfected 300–19 pre-B cells: % specific migration at 10 nM CCL21 [6]: 10.6% | Transwell migration of stably transfected 300–19 pre-B cells: % specific migration at 10 nM CCL21 [7]: 0.6% | G protein signaling (BRET cAMP Camyel sensor, transfected CHO-k1 cells): efficacy at 100 nM CCL21, normalized to WT CCR7 [8]: 53 % of WT | G protein signaling (BRET cAMP Camyel sensor, transfected CHO-k1 cells): efficacy at 100 nM CCL21, normalized to WT CCR7 [9]: 68 % of WT | G protein signaling (BRET cAMP Camyel sensor, transfected CHO-k1 cells): efficacy at 100 nM CCL21, normalized to WT CCR7 [10]: 44 % of WT | G protein signaling (BRET cAMP Camyel sensor, transfected CHO-k1 cells): efficacy at 100 nM CCL21, normalized to WT CCR7 [11]: 44 % of WT | G protein signaling (BRET cAMP Camyel sensor, transfected CHO-k1 cells): efficacy at 100 nM CCL21, normalized to WT CCR7 [13]: 48 % of WT | G protein signaling (BRET cAMP Camyel sensor, transfected CHO-k1 cells): efficacy at 100 nM CCL21, normalized to WT CCR7 [14]: 132 % of WT | G protein signaling (BRET cAMP Camyel sensor, transfected CHO-k1 cells): efficacy at 100 nM CCL21, normalized to WT CCR7 [15]: 27 % of WT | G protein signaling (BRET cAMP Camyel sensor, transfected CHO-k1 cells): efficacy at 100 nM CCL21, normalized to WT CCR7 [16]: 99 % of WT | G protein signaling (BRET cAMP Camyel sensor, transfected CHO-k1 cells): efficacy at 100 nM CCL21, normalized to WT CCR7 [17]: 32 % of WT | G protein signaling (BRET cAMP Camyel sensor, transfected CHO-k1 cells): efficacy at 100 nM CCL21, normalized to WT CCR7 [18]: 43 % of WT | G protein signaling (BRET cAMP Camyel sensor, transfected CHO-k1 cells): efficacy at 100 nM CCL21, normalized to WT CCR7 [19]: 76 % of WT | G protein signaling (BRET cAMP Camyel sensor, transfected CHO-k1 cells): efficacy at 100 nM CCL21, normalized to WT CCR7 [21]: 67 % of WT | G protein signaling (BRET cAMP Camyel sensor, transfected CHO-k1 cells): efficacy at 100 nM CCL21, normalized to WT CCR7 [22]: 38 % of WT | G protein signaling (BRET cAMP Camyel sensor, transfected CHO-k1 cells): efficacy at 100 nM CCL21, normalized to WT CCR7 [23]: 45 % of WT
Molecule: human chemokine CCL21 (from UniProt O00585 24-134) (ligand)

G protein signaling (BRET cAMP Camyel sensor, CHO-k1 cells transfected with CCR7): logEC50 [1]: -8.9 logEC50 (M) | G protein signaling (BRET cAMP Camyel sensor, CHO-k1 cells transfected with CCR7): signal at 100 nM chemokine, normalized to CCL19 [1]: 90%
B1: CCL19^CCL21N-term chimera (ligand)
chain: SDGGAQDCCLKYSQRKIPGYIVRNFHYLLIKDGCRVPAVVFTTLRGRQLCAPPDQPWVERIIQRLQRTSAKMKRRSS
